In paper PMC12501226:

Target: Recombinant SARS-CoV-1 spike protein 2P (residues 12-1193) (SARS-CoV-1) (UniProt P59594)
Assay: SPR

Substance: ACE2 monomer (human extracellular ACE2 domain, residues 18-615, cut from ACE2-TEV-Fc) (from UniProt Q9BYF1 18-615) (domain or fragment)
- Kd: 71 nM
- koff: 0.0016 s⁻¹
- kon: 170000 M⁻¹ s⁻¹
